In patent US20200087400A1 (EUREKA THERAPEUTICS, published 2020):
Numbering of substitutions follows the chain as printed.

Key:
[1] = molecular target: T1, control peptide A2E-19/HLA-A*02:01 complex on T2 cells (member of the P19 mixture) (human); assay: flow cytometry, phage on T2 cells
T1 construct: Loaded on T2 cells as part of the mixture of 19 control peptides
Method: (§1) Individual phage clones from enriched phage display panning pools against PSA146/HLA-A*02:01 complex were incubated in the coated plates. Binding of the phage clones was detected by HRP-conjugated anti-M13 antibodies and developed using HRP substrate. The absorbance was read at 450 nm. […] Then, unique antibody clones were identified through DNA sequencing of ELISA-positive clones. […] T2 cells loaded with different peptides and β2M were first stained with purified scFv phage clones, followed by staining with a mouse anti-M13 mAb, and finally R-PE conjugated horse anti-mouse IgG from Vector Labs. Each step of the staining was performed for between 30-60 minutes on ice and the cells were washed twice between stainings. All 16 clones recognized PSA146-loaded T2 cells specifically. FIG. 3 provides examples of PSA146/HLA-A*02:01 specific phage clone binding to peptide-loaded T2 cells through FACS.

Bio-P19 member A2E-13 = molecular target: T2, Bio-P19 member A2E-13 (chain 2: C-terminal BirA substrate peptide (BSP), enzymatically biotinylated; its letters are not printed in the patent and it is left out); assay: phage ELISA, streptavidin plate, anti-M13-HRP
T2 construct: also called biotinylated control peptide A2E-13/HLA-A*02:01 monomer
Method: as §1

Bio-P19 member A2E-8 = molecular target: T3, Bio-P19 member A2E-8 (chain 2 (heavy): C-terminal BirA substrate peptide, biotinylated there by BirA; tag letters not given, left out); assay: phage ELISA, streptavidin plate, anti-M13-HRP
T3 construct: also called biotinylated control peptide A2E-8/HLA-A*02:01 monomer; not shown: BirA substrate peptide (BSP) tag at the C-terminus of the heavy chain
Method: as §1

Bio-P19 member A2E-21 = molecular target: T4, Bio-P19 member A2E-21 (chain 2 carries a C-terminal BirA substrate peptide (BSP), enzymatically biotinylated; the BSP letters are not given in the patent and are left out); assay: phage ELISA, streptavidin plate, anti-M13-HRP
T4 construct: also called biotinylated control peptide A2E-21/HLA-A*02:01 monomer
Method: as §1

Bio-P19 member A2E-1 = molecular target: T5, Bio-P19 member A2E-1 (chain 2: C-terminal BirA substrate peptide (BSP), enzymatically biotinylated; its letters are not printed in the patent and it is left out); assay: phage ELISA, streptavidin plate, anti-M13-HRP
T5 construct: also called biotinylated control peptide A2E-1/HLA-A*02:01 monomer
Method: as §1

Bio-P19 member A2E-15 = molecular target: T6, Bio-P19 member A2E-15 (chain 2: C-terminal BirA substrate peptide (BSP), enzymatically biotinylated; its letters are not printed in the patent and it is left out); assay: phage ELISA, streptavidin plate, anti-M13-HRP
T6 construct: also called biotinylated control peptide A2E-15/HLA-A*02:01 monomer
Method: as §1

Bio-P19 member A2E-5 = molecular target: T7, Bio-P19 member A2E-5 (chain 2 carries a C-terminal BirA substrate peptide (BSP), enzymatically biotinylated; the BSP letters are not given in the patent and are left out); assay: phage ELISA, streptavidin plate, anti-M13-HRP
T7 construct: also called biotinylated control peptide A2E-5/HLA-A*02:01 monomer
Method: as §1

Bio-P19 member A2E-17 = molecular target: T8, Bio-P19 member A2E-17 (chain 2: C-terminal BirA substrate peptide (BSP), enzymatically biotinylated; its letters are not printed in the patent and it is left out); assay: phage ELISA, streptavidin plate, anti-M13-HRP
T8 construct: also called biotinylated control peptide A2E-17/HLA-A*02:01 monomer
Method: as §1

Bio-P19 member A2E-16 = molecular target: T9, Bio-P19 member A2E-16 (chain 2: C-terminal BirA substrate peptide (BSP), enzymatically biotinylated; its letters are not printed in the patent and it is left out); assay: phage ELISA, streptavidin plate, anti-M13-HRP
T9 construct: also called biotinylated control peptide A2E-16/HLA-A*02:01 monomer
Method: as §1

Bio-P19 member A2E-10 = molecular target: T10, Bio-P19 member A2E-10 (chain 2: C-terminal BirA substrate peptide (BSP), enzymatically biotinylated; its letters are not printed in the patent and it is left out); assay: phage ELISA, streptavidin plate, anti-M13-HRP
T10 construct: also called biotinylated control peptide A2E-10/HLA-A*02:01 monomer
Method: as §1

Bio-P19 member A2E-4 = molecular target: T11, Bio-P19 member A2E-4 (chain 2 carries a C-terminal BirA substrate peptide (BSP), enzymatically biotinylated; the BSP letters are not given in the patent and are left out); assay: phage ELISA, streptavidin plate, anti-M13-HRP
T11 construct: also called biotinylated control peptide A2E-4/HLA-A*02:01 monomer
Method: as §1

Bio-P19 member A2E-19 = molecular target: T12, Bio-P19 member A2E-19 (chain 2 carries a C-terminal BirA substrate peptide (BSP), enzymatically biotinylated; the BSP letters are not given in the patent and are left out); assay: phage ELISA, streptavidin plate, anti-M13-HRP
T12 construct: also called biotinylated control peptide A2E-19/HLA-A*02:01 monomer
Method: as §1

Bio-P19 member A2E-11 = molecular target: T13, Bio-P19 member A2E-11 (chain 2: C-terminal BirA substrate peptide (BSP), enzymatically biotinylated; its letters are not printed in the patent and it is left out); assay: phage ELISA, streptavidin plate, anti-M13-HRP
T13 construct: also called biotinylated control peptide A2E-11/HLA-A*02:01 monomer
Method: as §1

Bio-P19 member A2E-9 = molecular target: T14, Bio-P19 member A2E-9 (chain 2 (heavy): C-terminal BirA substrate peptide, biotinylated there by BirA; tag letters not given, left out); assay: phage ELISA, streptavidin plate, anti-M13-HRP
T14 construct: also called biotinylated control peptide A2E-9/HLA-A*02:01 monomer; not shown: BirA substrate peptide (BSP) tag at the C-terminus of the heavy chain
Method: as §1

Bio-P19 member A2E-14 = molecular target: T15, Bio-P19 member A2E-14 (chain 2: C-terminal BirA substrate peptide (BSP), enzymatically biotinylated; its letters are not printed in the patent and it is left out); assay: phage ELISA, streptavidin plate, anti-M13-HRP
T15 construct: also called biotinylated control peptide A2E-14/HLA-A*02:01 monomer
Method: as §1

Bio-P19 member A2E-6 = molecular target: T16, Bio-P19 member A2E-6 (chain 2 carries a C-terminal BirA substrate peptide (BSP), enzymatically biotinylated; the BSP letters are not given in the patent and are left out); assay: phage ELISA, streptavidin plate, anti-M13-HRP
T16 construct: also called biotinylated control peptide A2E-6/HLA-A*02:01 monomer
Method: as §1

Bio-P19 member A2E-7 = molecular target: T17, Bio-P19 member A2E-7 (chain 2 (heavy): C-terminal BirA substrate peptide, biotinylated there by BirA; tag letters not given, left out); assay: phage ELISA, streptavidin plate, anti-M13-HRP
T17 construct: also called biotinylated control peptide A2E-7/HLA-A*02:01 monomer; not shown: BirA substrate peptide (BSP) tag at the C-terminus of the heavy chain
Method: as §1

Measured: binding result

B1: PSA146/HLA-A*02:01-specific scFv phage clone #12 (scFv, V domains shown)
VH: QMQLVQSGSEVKKPGASVKVSCKASGYTFTSYGISWVRQAPGQGLEWMGWISAYNGNTDYVQKLQGRVTMTTDTSTNTAYMELGSLGSDDTAVYYCARTNYNKYDIWGQGTLVTVSS
VL: QSVLTQPPSVSGAPGQRVTISCTGSSSNIGAGYDVHWYQQLPGTAPKLLIYGNSNRPSGVPDRFSGSKSGTSASLAITGLQAEDEADYYCQSYDSSLSEVFGTGTKVTVLG
no binding: all assays above

B2: PSA146/HLA-A*02:01-specific scFv phage clone #13 (scFv, V domains shown)
VH: QVQLVQSGAEVKKPGASVKVSCKASGYTFTSYYMHWVRQAPGQGLEWMGGFDPEDGETIYAQKFQGRVTMTEDTSTDTAYMGLSSLRSEDTAVYYCARYSYDYWGQGTLVTVSS
VL: QAVVTQEPSLTVSPGGTVTLTCASSTGAVTSGYYPNWFQQKPGQAPRALIYSTSNKHSWTPARFSGSLLGGKAALTLSGVQPEDEAEYYCLLYYGGAYVFGTGTKVTVLG
no binding: all assays above

B3: PSA146/HLA-A*02:01-specific scFv phage clone #14 (scFv, V domains shown)
VH: B2 VH with Q1E, S31G, Y33F, G82E, Y103L
VL: QTVVTQEPSLTVSPGGTVTLTCASSTGAVTSGYYPNWFQQKPGQAPRALIYSTSNKHSWTPARFSGSLLGGKAALTLSGVQPEDEAEYYCLLYYGGAQWVFGGGTKLTVLG
no binding: all assays above

B4: PSA146/HLA-A*02:01-specific scFv phage clone #15 (scFv, V domains shown)
VH: QVQLVQSGAEVKKPGSSVKVSCKASGGTFSSYAISWVRQAPGQGLEWMGRIIPILGIANYAQKFQGRVTITADKSTSTAYMELSSLRSEDTAVYYCARVSQPVYGSSTYDIWGQGTLVTVSS
VL: QAVLTQPPSASGTPGQRVTISCSGRSSNLGSNSVNWYQQVPGTAPKLLIFDNHQRPSGVPDRFSGSKSGTSASLAISGLRSEDETDYYCAAWDDSLNSVVFGGGTKLTVLG
no binding: all assays above

B5: PSA146/HLA-A*02:01-specific scFv phage clone #17 (scFv, V domains shown)
VH: QMQLVQSGAEVKKPGESLKISCKGSGYSFTSYWIGWVRQMPGKGLEWMGIIYPGDSDTRYSPSFQGQVTISADKSISTAYLQWSSLKASDTAMYYCARLVVPDAFDIWGQGTMVTVSS
VL: QSVVTQPPSVSAAPGQKVTISCSGSSSNIGNNYVSWYQQLPGTAPKLLIYDNYKRPSGIPDRFSGSKSGTSATLGITGLQTGDEADYYCGTWDSSLSAGVFGGGTKLTVLG
no binding: all assays above
